Measurements as given in paper PMC6810841.

Biological target: BicDR1 E165R/E167K-GFP (mouse) (UniProt A0JNT9)
UniProt A0JNT9, sequence (A0JNT9 whole entry E165R/E167K): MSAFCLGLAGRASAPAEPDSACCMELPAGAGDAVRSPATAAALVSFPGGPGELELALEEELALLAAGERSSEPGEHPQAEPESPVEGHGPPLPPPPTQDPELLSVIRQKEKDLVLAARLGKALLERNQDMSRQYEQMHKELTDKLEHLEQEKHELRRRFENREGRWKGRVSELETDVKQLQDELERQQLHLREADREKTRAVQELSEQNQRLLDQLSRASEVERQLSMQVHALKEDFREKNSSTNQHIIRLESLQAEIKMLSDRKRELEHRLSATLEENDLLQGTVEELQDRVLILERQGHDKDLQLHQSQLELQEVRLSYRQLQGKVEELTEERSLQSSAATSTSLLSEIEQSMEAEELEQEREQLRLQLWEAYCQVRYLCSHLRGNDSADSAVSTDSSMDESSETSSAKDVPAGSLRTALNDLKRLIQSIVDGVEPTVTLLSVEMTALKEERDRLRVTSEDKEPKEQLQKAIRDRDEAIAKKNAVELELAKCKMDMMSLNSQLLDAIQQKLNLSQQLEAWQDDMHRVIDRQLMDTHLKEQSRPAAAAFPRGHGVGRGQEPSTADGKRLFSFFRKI

- reduction of recruitment against BicDR1: 50%
Substance: dynein long tail (SNAP-DYNC1H1 1-1,074-GST with associated chains) (from UniProt Q14204;O43237;P63172;P63167;Q9NP97) (complex)
